Source: publication PMC9482650, “Quantitative fragmentomics allow affinity mapping of interactomes” (Nature Communications, 2022)

Legend:
Assay in all cases: holdup assay
Parameters in all cases: key: below the threshold = too weak to quantify, mostly under pKd 3.1 to 4
[1] = target: GORASP1, Q9BQQ3
[2] = target: GRIP2_4, Q9C0E4
[3] = target: T1, LIN7C, Q9NUP9
T1 sequence (Q9NUP9 88-185, limits assumed, looked up): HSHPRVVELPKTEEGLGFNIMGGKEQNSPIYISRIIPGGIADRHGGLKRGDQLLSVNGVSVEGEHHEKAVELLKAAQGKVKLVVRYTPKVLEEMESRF

[4] = target: T2, MPP2, Q14168
T2 sequence (Q14168 180-250, limits assumed, looked up): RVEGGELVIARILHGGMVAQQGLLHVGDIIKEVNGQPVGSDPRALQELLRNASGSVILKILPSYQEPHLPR

[5] = target: DLG2_3, Q15700
[6] = target: DLG1_1, Q12959
[7] = target: HTRA2, O43464
[8] = target: T3, DFNB31_2, Q9P202
T3 sequence (Q9P202 274-371, limits assumed, looked up): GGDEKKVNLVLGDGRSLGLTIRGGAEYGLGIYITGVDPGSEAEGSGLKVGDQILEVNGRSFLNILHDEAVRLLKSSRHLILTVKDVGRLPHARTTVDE

[9] = target: T4, APBA2_2, Q99767
T4 sequence (Q99767 654-744, limits assumed, looked up): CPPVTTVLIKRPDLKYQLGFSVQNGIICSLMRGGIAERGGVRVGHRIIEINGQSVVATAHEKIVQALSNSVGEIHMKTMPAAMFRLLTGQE

[10] = target: PARD3_3, Q8TEW0
[11] = target: Inadl_10, Q8NI35
[12] = target: NHERF4_2, Q86UT5
[13] = target: GRIP2_7, Q9C0E4
[14] = target: T5, DVL3, Q92997
T5 sequence (Q92997 244-331, limits assumed, looked up): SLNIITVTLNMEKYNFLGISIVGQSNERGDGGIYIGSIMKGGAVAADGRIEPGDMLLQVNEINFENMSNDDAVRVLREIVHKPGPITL

[15] = target: T6, SIPA1L2, Q9P2F8
T6 sequence (Q9P2F8 945-1036, limits assumed, looked up): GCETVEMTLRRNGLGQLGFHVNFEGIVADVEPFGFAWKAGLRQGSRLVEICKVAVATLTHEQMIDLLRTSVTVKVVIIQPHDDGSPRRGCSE

[16] = target: T7, DLG3_1, Q92796
T7 sequence (Q92796 125-227, limits assumed, looked up): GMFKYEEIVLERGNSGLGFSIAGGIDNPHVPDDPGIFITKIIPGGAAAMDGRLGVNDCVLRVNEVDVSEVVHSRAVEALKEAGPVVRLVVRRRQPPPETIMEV

[17] = target: T8, FRMPD1, Q5SYB0
T8 sequence (Q5SYB0 52-145, limits assumed, looked up): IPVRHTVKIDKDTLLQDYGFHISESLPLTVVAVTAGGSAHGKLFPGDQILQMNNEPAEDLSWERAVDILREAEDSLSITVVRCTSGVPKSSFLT

[18] = target: SCRIB_3, Q14160
[19] = target: MAGI1_2, Q96QZ7
[20] = target: T9, TX1BP3, O14907
T9 sequence (O14907 10-122, limits assumed, looked up): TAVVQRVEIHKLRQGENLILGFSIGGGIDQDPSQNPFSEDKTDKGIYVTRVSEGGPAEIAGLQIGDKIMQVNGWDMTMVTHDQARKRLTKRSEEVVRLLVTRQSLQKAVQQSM

[21] = target: LDB3, O75112
[22] = target: T10, LNX2_2, Q8N448
T10 sequence (Q8N448 334-432, limits assumed, looked up): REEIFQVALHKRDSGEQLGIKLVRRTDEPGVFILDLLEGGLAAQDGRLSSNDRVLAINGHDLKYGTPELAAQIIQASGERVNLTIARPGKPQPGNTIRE

[23] = target: GRIP2_6, Q9C0E4
[24] = target: NOS1, P29475
[25] = target: T11, MPDZ_10, O75970
T11 sequence (O75970 1624-1722, limits assumed, looked up): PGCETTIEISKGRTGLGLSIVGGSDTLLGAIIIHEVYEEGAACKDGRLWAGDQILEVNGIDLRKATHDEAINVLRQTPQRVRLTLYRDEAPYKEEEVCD

[26] = target: GRIP2_5, Q9C0E4
[27] = plain residues with an end cap or a label only (N-terminal biotin on a linker: ttds)
[28] = plain residues with an end cap or a label only (N-terminal biotin on a linker: ahx)

Sequence of HTRA2, O43464 (O43464 355-458): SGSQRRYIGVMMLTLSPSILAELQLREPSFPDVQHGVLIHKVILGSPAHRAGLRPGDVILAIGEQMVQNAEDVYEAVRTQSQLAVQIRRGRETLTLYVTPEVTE
Sequence of Inadl_10, Q8NI35 (Q8NI35 1673-1763): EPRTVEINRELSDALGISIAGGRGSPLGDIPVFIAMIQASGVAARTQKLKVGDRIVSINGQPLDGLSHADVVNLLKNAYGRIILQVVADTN
Sequence of MAGI1_2, Q96QZ7 (Q96QZ7 456-580): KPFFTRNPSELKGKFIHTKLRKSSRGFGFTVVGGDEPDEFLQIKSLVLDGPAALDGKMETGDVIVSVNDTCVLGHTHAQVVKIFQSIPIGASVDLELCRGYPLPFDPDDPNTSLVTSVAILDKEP
Sequence of NOS1, P29475 (P29475 9-101): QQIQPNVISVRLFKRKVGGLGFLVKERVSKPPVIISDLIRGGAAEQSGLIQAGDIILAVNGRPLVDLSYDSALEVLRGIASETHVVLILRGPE
Sequence of NHERF4_2, Q86UT5 (Q86UT5 220-308): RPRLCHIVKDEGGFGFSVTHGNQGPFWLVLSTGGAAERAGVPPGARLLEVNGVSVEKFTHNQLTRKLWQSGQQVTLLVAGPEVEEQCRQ
Sequence of GORASP1, Q9BQQ3 (Q9BQQ3 1-208): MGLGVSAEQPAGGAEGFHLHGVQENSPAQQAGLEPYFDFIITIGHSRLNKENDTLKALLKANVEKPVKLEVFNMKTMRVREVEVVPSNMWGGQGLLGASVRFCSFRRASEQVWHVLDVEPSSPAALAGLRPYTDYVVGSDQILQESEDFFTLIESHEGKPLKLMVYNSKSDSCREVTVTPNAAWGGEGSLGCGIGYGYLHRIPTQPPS
Sequence of GRIP2_6, Q9C0E4 (Q9C0E4 648-740): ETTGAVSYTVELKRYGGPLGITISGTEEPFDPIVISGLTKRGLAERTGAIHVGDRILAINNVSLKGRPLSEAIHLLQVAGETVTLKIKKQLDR
Sequence of GRIP2_4, Q9C0E4 (Q9C0E4 446-548): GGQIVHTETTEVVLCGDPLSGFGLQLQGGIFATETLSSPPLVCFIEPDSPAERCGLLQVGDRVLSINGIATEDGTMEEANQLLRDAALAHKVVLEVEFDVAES
Sequence of GRIP2_5, Q9C0E4 (Q9C0E4 544-642): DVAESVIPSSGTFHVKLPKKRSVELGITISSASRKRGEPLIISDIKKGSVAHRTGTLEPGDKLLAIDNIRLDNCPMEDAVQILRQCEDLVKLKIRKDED
Sequence of LDB3, O75112 (O75112 1-94): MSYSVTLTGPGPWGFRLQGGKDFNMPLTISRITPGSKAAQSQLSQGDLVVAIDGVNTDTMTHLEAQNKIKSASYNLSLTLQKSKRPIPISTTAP
Sequence of PARD3_3, Q8TEW0 (Q8TEW0 582-685): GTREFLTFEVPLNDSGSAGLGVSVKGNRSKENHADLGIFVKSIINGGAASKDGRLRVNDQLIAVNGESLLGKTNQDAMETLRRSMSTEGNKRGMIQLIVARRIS
Sequence of GRIP2_7, Q9C0E4 (Q9C0E4 934-1023): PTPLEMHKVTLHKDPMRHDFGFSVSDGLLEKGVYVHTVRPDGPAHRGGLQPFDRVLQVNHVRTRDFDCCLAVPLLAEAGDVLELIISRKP
Sequence of SCRIB_3, Q14160 (Q14160 999-1103): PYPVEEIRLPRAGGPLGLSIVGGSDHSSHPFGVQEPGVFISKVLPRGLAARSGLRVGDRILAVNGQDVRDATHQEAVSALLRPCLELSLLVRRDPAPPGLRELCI

RLQRRRETQV [HPV18-E6, P06463]
pKd [1, 27]: below the threshold
pKd [2, 27]: below the threshold
pKd [3, 27]: 4.17
pKd [4, 27]: below the threshold
pKd [5, 27]: 5.06
pKd [6, 27]: 5.26
pKd [7, 27]: below the threshold
pKd [8, 27]: below the threshold
pKd [9, 27]: below the threshold
pKd [10, 27]: below the threshold
pKd [11, 27]: below the threshold
pKd [12, 27]: below the threshold
pKd [13, 27]: below the threshold
pKd [14, 27]: below the threshold
pKd [15, 27]: below the threshold
pKd [16, 27]: 4.34
pKd [17, 27]: below the threshold
pKd [18, 27]: 4.84
pKd [19, 27]: 5.97
pKd [20, 27]: 4.67
pKd [21, 27]: below the threshold
pKd [22, 27]: 3.17
pKd [23, 27]: below the threshold
pKd [24, 27]: 3.71
pKd [25, 27]: 3.56
pKd [26, 27]: below the threshold

RLPKIKETTV [FRMPD4, Q14CM0]
pKd [1, 27]: below the threshold
pKd [2, 27]: below the threshold
pKd [3, 27]: 5.29
pKd [4, 27]: below the threshold
pKd [5, 27]: 5.15
pKd [6, 27]: 5.12
pKd [7, 27]: below the threshold
pKd [8, 27]: 4.12
pKd [9, 27]: below the threshold
pKd [10, 27]: below the threshold
pKd [11, 27]: below the threshold
pKd [12, 27]: below the threshold
pKd [13, 27]: below the threshold
pKd [14, 27]: 3.43
pKd [15, 27]: below the threshold
pKd [16, 27]: 4.51
pKd [17, 27]: below the threshold
pKd [18, 27]: 4.88
pKd [19, 27]: 4.49
pKd [20, 27]: 4.57
pKd [21, 27]: below the threshold
pKd [22, 27]: 4.47
pKd [23, 27]: 3.39
pKd [24, 27]: below the threshold
pKd [25, 27]: below the threshold
pKd [26, 27]: below the threshold

RHTTSTETAV [HPV30-E6, P36809]
pKd [1, 27]: below the threshold
pKd [2, 27]: 3.66
pKd [3, 27]: 4.19
pKd [4, 27]: below the threshold
pKd [5, 27]: 4.79
pKd [6, 27]: 4.93
pKd [7, 27]: below the threshold
pKd [8, 27]: below the threshold
pKd [9, 27]: below the threshold
pKd [10, 27]: below the threshold
pKd [11, 27]: below the threshold
pKd [12, 27]: below the threshold
pKd [13, 27]: 3.84
pKd [14, 27]: below the threshold
pKd [15, 27]: below the threshold
pKd [16, 27]: 4.45
pKd [17, 27]: below the threshold
pKd [18, 27]: 5.02
pKd [19, 27]: 4.39
pKd [20, 27]: 4.65
pKd [21, 27]: below the threshold
pKd [22, 27]: 3.77
pKd [23, 27]: 3.77
pKd [24, 27]: 4.63
pKd [25, 27]: below the threshold
pKd [26, 27]: 3.75

SSLQSLETSV [ATP2B4, P23634]
pKd [1, 27]: below the threshold
pKd [2, 27]: below the threshold
pKd [3, 27]: 4.8
pKd [4, 27]: below the threshold
pKd [5, 27]: 4.88
pKd [6, 27]: 5
pKd [7, 27]: below the threshold
pKd [8, 27]: below the threshold
pKd [9, 27]: 3.59
pKd [10, 27]: 3.87
pKd [11, 27]: below the threshold
pKd [12, 27]: below the threshold
pKd [13, 27]: 3.52
pKd [14, 27]: 3.6
pKd [15, 27]: below the threshold
pKd [16, 27]: 4.35
pKd [17, 27]: below the threshold
pKd [18, 27]: 5.11
pKd [19, 27]: 3.68
pKd [20, 27]: 4.62
pKd [21, 27]: below the threshold
pKd [22, 27]: 4.01
pKd [23, 27]: below the threshold
pKd [24, 27]: 4.04
pKd [25, 27]: below the threshold
pKd [26, 27]: below the threshold

KKYVDAETSL [SLC4A7, Q9Y6M7]
pKd [1, 27]: below the threshold
pKd [2, 27]: below the threshold
pKd [3, 27]: 3.81
pKd [4, 27]: below the threshold
pKd [5, 27]: below the threshold
pKd [6, 27]: below the threshold
pKd [7, 27]: below the threshold
pKd [8, 27]: 3.5
pKd [9, 27]: below the threshold
pKd [10, 27]: 3.62
pKd [11, 27]: below the threshold
pKd [12, 27]: below the threshold
pKd [13, 27]: below the threshold
pKd [14, 27]: below the threshold
pKd [15, 27]: below the threshold
pKd [16, 27]: 3.49
pKd [17, 27]: below the threshold
pKd [18, 27]: 5.09
pKd [19, 27]: 3.69
pKd [20, 27]: 3.82
pKd [21, 27]: below the threshold
pKd [22, 27]: below the threshold
pKd [23, 27]: below the threshold
pKd [24, 27]: 3.58
pKd [25, 27]: below the threshold
pKd [26, 27]: below the threshold

GYDWGPATDL [TJP3, O95049]
pKd [1, 28]: below the threshold
pKd [2, 28]: below the threshold
pKd [3, 28]: 3.71
pKd [4, 28]: below the threshold
pKd [5, 28]: 3.52
pKd [6, 28]: below the threshold
pKd [7, 28]: below the threshold
pKd [8, 28]: below the threshold
pKd [9, 28]: below the threshold
pKd [10, 28]: 3.66
pKd [11, 28]: 3.62
pKd [12, 28]: below the threshold
pKd [13, 28]: below the threshold
pKd [14, 28]: below the threshold
pKd [15, 28]: below the threshold
pKd [16, 28]: 3.48
pKd [17, 28]: below the threshold
pKd [18, 28]: 4.93
pKd [19, 28]: below the threshold
pKd [20, 28]: 4.39
pKd [21, 28]: 3.97
pKd [22, 28]: below the threshold
pKd [23, 28]: below the threshold
pKd [24, 28]: below the threshold
pKd [25, 28]: below the threshold
pKd [26, 28]: below the threshold
